# Results published in the DeepSol protein solubility set.
# Experiment: soluble on expression in E. coli; label from the status in PepcDB or PDB records
row,Sequence,soluble on expression in E. coli
1,MAYLVAVTACVSGVAHTYMAAERLEKLCLLEKWGVSIETQGALGTENRLADEDIRRADVALLITDIELAGAERFEHCRYVQCSIYAFLREPQRVMSAVRKVLSAPQQTHLILE,soluble
2,MAYPVSPIAGRRSNWRSFAASLNLEDGPASSDSTSSPSEQTSDGGEVYGDPSENLNSRKLKSDELKSLLADSERSKLLKKLSEANQYNRFLKRQLQMKDNDVVKFKSELAVMELELQALVALAEEIANFDVPSGSRKINGKYIQSHLLTRLEAVHDKVMEQIKDVDSLKHQEISVFWVGIAENVQIMGSFDGWSQGEAMSMEYSGYQARFSATLNLRPGRYEIKFLVDGEWRLSLEYPIDGEGSMQNNILVVN,not soluble
3,MAYTLHKMTKKLHKQKFFQFAAFIQKKFDSPLFKAIRKRSCHWSDISNHNDNYDLTVASYNVHKCIGVDKVFNPTRIVQVITELQVDILALQEADKRFGERIGLIDLQLLKAETGLIPVPLNTMSPHGHGWHGNALFLRKGHVCDTLQITLPGIEPRGAVIADLEMEVGPIRVIAAHFGLLRHSRNQQTKMLLSLLQKRPLMPTLLIGDFNEWRIGKGSSLNHFAPYFDSTVGTVPSFPSRFPLLALDRILAFPHQLVIRIENHHSPLARIASDHLPIKAYLDLSHAMATLKK,not soluble
4,MCAKIALLLVLVGAASAAVLPDKFYGTFDLDHSENFDEYLTAKGYGWFTRKLVTFATFKKVFTKTSNKNLFDYSNLTSKKDVHYKNVQLGKAFQGEGLDSTKHEITFTLKDGHLFEHHKPLEGGDAKEETYEYLFDKEFLLVRMSFNGVEGRRFYKRLP,not soluble
5,MCEISVVMPVYNAEMHIKDAIESVLEQSFVDFEFILIDDGSTDHTSSIIQSYNDKRVRLIQNSHNFIESLNLGIENSLGKYMARMDGDDIMHIDRLKIQYAIMQEYPDVTVCGTWMNSIGTYSQTNGLLSTLSGWVEQPLLKFTKGNFLFHPTTMIRMDFLKKNALKYENYPYAEDFKFWVEIAKSGGRFYIDSQPLLYYRISDSQVSSQKSSEQRATTESIINEVLEYLMELNKNEYPELAAAYGDLCKLYEKQLLTKCEVLTLFQTLFSKNEKKLNLLEHHHHHH,soluble
6,MCEQGVSYYNSQELKCCKLCKPGTYSDHRCDKYSDTICGHCPSDTFTSIYNRSPWCHSCRGPCGTNRVEVTPCTPTTNRICHCDSNSYCLLKASDGNCVTCAPKTKCGRGYGKKGEDEMGNTICKKCRKGTYSKTGHHHHHH,soluble
7,MCITFIKTAKSSLDKYKLILLNNRDEQLLRPTKEMHWHDGILSGVDKQENARGTWLGLNENGRIGMMLSITQTQESKNLHAPSRGGIVNEFLNANDTSKMIESLKKCASKYNGFQLVAVEKNSTGLYEVRTLANQQVDEIEVCQLKDEYHVVSNSPPTKPYQKAVQGKKLLREHLENSDQFSVDQIFEKLLSIAKNTTQWYPDAQLQYQTQNVEEYNRPLSAIFIKYPEGTRMYGTRCHTLITVDQKDKINILERRLLPEQSTWHDARFEFVLNGS,not soluble
8,MCLEPIIAPISSELLEQELTADRFLRMTNKAGNEIYVFTAEEAPHCMKEVGRLREEAFRHYGGGTGKAIDIDEFDTMPGSYKQLIVWDPQNKAILGGYRFIYGRDVAFDTDGKPLLATAEMFRFSDAFLHDYLPYTVELGRSFVSLQYQSTRMGTKAIFVLDN,not soluble
9,MCLNRVNEWVLEFNSRTKKLLIDLNKRLPGAKFSFADTYPAVLDLINNPTHYGFKIANTSCCNVDTSVGGLCLPNSKMCKNRQDFVFWDAFHPSDSANQILADHLFSSLLSSSSPSPAPKPRQ,not soluble
10,MCMIVYFFFIHKPLAFYFIRLFHPHPFPVVLDHILLLISSLIGFKSQDSSFRHQNSDCQMNVFQVIIFLLSVLAVFSSADLSIDGESLVLSINEEGPIKVRRARETGEH,not soluble
11,MCMSLRESAAAADAGAGPLAGSARDLLAQWNGGEDVWVFAYGSLIWRPDFAWQERRLATVRGYHRSLLWSHDHRGSPDNPGLVFGLDRGGCCRGVAFRVAGRDVPEVFQALWHREMSGGAYKPRWLRCHTGQAPVRGLAFVPDRRCRHYAGALSDELLIRAVRQAVGRSGACLDYVRETHRALNEHGIVDWRLGALVDRLAQPLEHHHHHH,not soluble
12,MCMVKVWVEKLLDEPELYILRLDDSEIKHFEAAWSIPEGITYNAYLMKVGDAVVLFDTWKGEYTEKFLESLSTLVDPKEITHIIVHHTEPDHSGALPKLLELNEYRAKLIGTTFAKNLLQGFYGDKVVENFHTIKDGEEVKIGNRTFRFITVPWLHWPDTMITYDVEDKLIFSCDAGGGYGIPEAIDDSDEDVVKKYLPYVTKYIVTVIGHYHKYIVQNIKKLKELGIIENANMILPGHGLIWRKSPTRIFEHYERVGAGIPTKDKVLVIYDSMYGFVEKRMSVVIEELKRYGKKPVVYRFTDKENPAISDILGEVPDSEALVIGVSTYEADIHPRMRCALYEILDKANYEKPVLIVGAFGWGGVAGKKVETLISRSKFELVDVVETKGRMTSEDEERLREAVRKLIQWQL,soluble
13,MCTSLTLETKNGQHLFARTMDFTLDMNQEVIIIPRHYQWNNITGEIINTKHATVGMGINHQGRIIMADGVNEAGMTCATLYFPGFATYSQSIDDNTTNLAPFDFVTWSLTQFNSVKELKKSVDSITFLDIPLPDLGLTPPLHWILADKWGDCIVLDPTSEGLKLYDNPLGVMTNSPEFNWHLQNLRQYIGLKSQPFAPTEWSNLPLSAFGQGSGSMGLPGDFTPPSRFVRAAYGKQNIQGIDSEEEGVSALFHILSNCEVPKGGVITEEGALDNTIYTSVMCMESGTYYYHTYDCRQIIAVHLFHENLDTDEIKAYPFQRKQKIFYEN,not soluble
14,MDAARFPADARVRVLARRFPPYHRDSPCLAILDRFLHDPTLSAAAVVDDAMRPVGLIDRYSLVEQFLHPYSRDLYHKHSIAAFMDPEPVIVEADSSIDDLSRIIIDAGMRHMVSGFIVTEDGLYLGIGSGHDLFEEVANRKQNHLYHLAHYDPLTSLPNRLLLNDRLKRACLRGQRGGYRIALLFIDLDRFKLVNDTLGHAAGDQLLQGVAGRFAACVRKVDTVARLGGDEFTVLLEPVQGPDEALAVAAKLAQSLERPFLIQNHEITTSASIGVVLFPEHDATVEGLMRKADAAMYCAKREGRNRFALFTEEMNSTVVERVTLESYLNAALEKGEFCCHFQPQMATADDRIVGVEALLRWTNPVLGRVPPLKFIPVAEDTGLILPLGLWALETACAQQVRWLSQGLPPLRMAVNISPLQFRNREFCDQVRAIVQRTGIRAEHLELELTESAVMADAESSVGILRELRDSGIRLAIDDFGTGYSSLSYLRKFPLDRLKIDRSFVSGIDRIPANELIVKAIVALGGSLGLDVIAEGVETPEELECIERCGCSEYQGFRLSEPLTAEDFAHWFEDSGYVLEHHHHHH,not soluble
15,MDAIMMEHRNDFWVFGYGSLMWRPGFAHVETVRARLHGYRRSLCIYSHVHRGTPDHPGLVLGLDTGGSCLGIAFRVPGDMTDEVMTYLREREMANKVYHEKKLHLRLADGRIVEAVAYVADRRHRQYAGRMTSEKAAAIIASAQGESGANIDYVTNTLMHLRNMRVRDHALEHINELVLAAASRQANNAALEHHHHHH,soluble
16,MDDELRGLLARYARGELSADDARRAILRYPKWRVAEIDGELETVALDDGTPMLIAESSASDGREYSGLELVRDIAPLVGGLSFDPDEPWGSAFRPGALPELQNWARTVELEDAVAKPGPGQRDLLYEGPWWVAVSPGTGRPAVHRADGLDVITIMTAPDAAATFRRTERHRGLDVVRLGPALWGDLAKRSDFDGVRLNPLRPLAQLWPPHVPAMLVAGCDPRPNAEPLPARTVAEIHLWLDQHGARQEKRELSNRATPVGEVTVARAWWNYDRREIAFTRVAPASDTEGLGSVPSRILCAGKLRQSIQSKLAGLPRLTWRADAWHRQRAALAVGWALELEKLVCGERVPFAALRTPEGAHLWHLEPQAFTARAIRKLRDRAASFR,soluble
17,MDDERKRKKYTLYLHPEKAADFQTLEAIESVPRSERGELFRNAFISGMALHQLDPRLPVLLTAILSEEFSADQVVTLLSQTTGWKPSQADIRAVLTELGASQSVEKMPPSATDSVQEAMNDVRLKMKKLF,soluble
18,MDDFATSSRVFEDDNDAFDFNPLEDFAFDDIDDDDDIVSGILDDGPYSIPNADNKPKFKSVSFDNAETPEERIETLFNQMPTQDDLLLGILDASQTPIFTDDLEQKVEELKQHHHSVYSPMSYCRLLERAGAIEQTNNEGLPLKEVEVEPDKVVVEGVEYWKVAAAPDVYWTATPAGLAHFQAYQPMELLRQMVQNEPQYEEIFRMVLSATAADGGESVKNIDDLVSDDPILQSPRRYAMYFIDKLERAGGIQWRGAWVAIQAGKDFLAELNA,not soluble
19,MDDNQIINLFFQRNEDAINAVDEKYGSKLNALAANILQSREDGLECVNDMYMKAWNSIPPARPEYLFAFLATSARNIAIDMIRKNNAGKRQAKVVELTKELEECIGDGGLQTHLDKEDIGEMLSHFLETVDKNKRIIFLRRYWYSDSIKDISERMQMSESAVKVTLHRTRKELRKYLESEGLYL,not soluble
20,MDDRLFRNAMGKFATGVTVITTELNGAVHGMTANAFMSVSLNPKLVLVSIGEKAKMLEKIQQSKKYAVNILSQDQKVLSMNFAGQLEKPVDVQFEELGGLPVIKDALAQISCQVVNEVQAGDHTLFIGEVTDIKITEQDPLLFFSGKYHQLAQNEKVETSS,soluble
21,MDENLRQLAESILTDLTQDAPIANTMLKAKVFASKKNDKDLLSWIEHELNGYEENLPKYRLLDAGVKVDIHRGFQEVLGYNYPMGMVKDEKVRERLLHLPIHGSISEVEELSTKSGEGTIHIDIPIEIWYHHMRHCINGDIQRAYQFATVASVKQIMVKIKSLLIDYFLKIDKGESLSFLSLIKKETPTMQIIAGIVNTGS,not soluble
22,MDERRTAEERRERMLPETMPVCPVRGSVIYPTMVMPIDAGRPISIRAIDEALARDRVLLIVSQRDKEVETPRPSDLFEVGTACNILKMRKNPDGSVQVLVQAFARVRVREWLDLGDHLEARGEVLADEPGEPILVKALVREVKDKFQALLKEGKYLAPEVAQFILNLEDPSQLADYVAFHMDFRLEDKQKVLETANVAERLRAVLVLLEAELALIETQRRIQQQVKEEIDRNQREYFLREQMKAIQRELHGEEGEQEVEEFRRKLEALDLPPVVRQEAERELNRFARMHPDSAEASVIRTYLDWIVNLPWNTRTEDNLDLERAKEILERDHYGLEKVKDRVLEYLAVRKLKAERAKRGEIPPDEVNKGPILLFVGPPGVGKTSIAKSIAEALGRKYVRVSLGGVRDESDIRGHRRTYIGAMPGRIIQGLRQAGTKNPVFLLDEVDKLGISYQGDPAAALLEVLDPAQNKEFVDHYLGVPFDLSEVMFICTANFPQNIPAPLYDRMEPIEFTSYTEQEKLEIAKRYLLPRQLKENGLEPEQVVVTEAALTRLITHYTREAGVRQLEREIGALLRKAARRILEEGKKRVRITEKDLEAYLGPPRFLPETEAREPQVGVATGMYYTPVGGDIMFVEVSVMPGKGNLILTGQLGDVMKESARAALSYAKKNALRFGIPLEKFDKSDIHIHVPAGAIPKEGPSAGVALVSALVSALTEVPVRHDIAMTGEITLTGRVLPIGGVKEKVLGARRAGIREVILPKLNEPDLSDIPKPLRQNMTFHFVEHLDQVLDLALVGGLKALEERGRRPRSARKKKELVAHA,soluble
23,MDESAALRAFQDALRTQRPEFGQFFLARLLGLDISYPDGQCLIVFEPQDFLFNPQGSLHGGIIATVMDISMGHLLNHVQGAGLTLEMKTQYLKAVHQGTVYCRGEFLQRGRSVSFLKSTLTDAQGEPLAMATSTWKALSPLEHHHHHH,soluble
